Data taken from US9976167B2, “Group of glycosyltransferases and use thereof” (Shanghai Institutes For Biological Sciences, Chinese …, priority 2012, dated 2018).

What was measured:
HeLa cells = HeLa cells (human); cited from earlier work
lung cancer cells 3LL = lung cancer cells 3LL (mice); cited from earlier work
[1] = test system: Morris liver cancer cells; settings: Morris liver cancer cells (rats); cited from earlier work
osteoclasts = settings: cited from earlier work
prostate cancer cells = settings: cited from earlier work
B-16 melanoma cells = B-16 melanoma cells (mice); cited from earlier work
[2] = Glycosyltransfering reaction with crude enzyme, substrate PPT; type: biochemical; settings: cell lysate of recombinant yeasts, method of Example 4
[3] = Glycosyltransfering reaction with crude enzyme, substrate Rh1; type: biochemical; settings: cell lysate of recombinant yeasts, method of Example 4
Description: (§1) The lysate supernatant of the recombinant yeasts expressing the empty vector was used as control.
(§2) The reaction was conducted under 35° C. for 12 hrs, then stopped by adding 100 μL of butanol. The product were extracted, dried in vacuum, and dissolved in methanol.
(§3) The reaction products were first detected by thin layer chromatography (TLC). […]

[4] = Glycosyltransfering reaction with crude enzyme, substrate F1; type: biochemical; settings: cell lysate of recombinant yeasts, method of Example 4
Description: According to the method as in Example 4, the cell lysate of recombinant yeasts expressing gGT13 and gGT30 were used to catalyze PPD and PPT.
The lysis supernatant of recombinant E. coli expressing empty vectors was used as control. The 100 μL reaction system is shown as Table 3. The reaction was conducted under 35° C. for 12 hrs, then stopped by adding 100 μL of butanol. The product were extracted, dried in vacuum, and dissolved in methanol.

[5] = Glycosyltransfering reaction with crude enzyme, substrate PPD; type: biochemical; settings: cell lysate of recombinant yeasts, method of Example 4
[6] = Glycosyltransfering reaction with crude enzyme, substrate Rg1; type: biochemical; settings: cell lysate of recombinant yeasts, method of Example 4
[7] = Glycosyltransfering reaction with crude enzyme, substrate Rh2; type: biochemical; settings: cell lysate of recombinant yeasts, method of Example 4
[8] = Glycosyltransfering reaction with crude enzyme, substrate F2; type: biochemical; settings: cell lysate of recombinant yeasts, method of Example 4
[9] = Glycosyltransfering reaction with crude enzyme, substrate CK; type: biochemical; settings: cell lysate of recombinant yeasts, method of Example 4
How it was run: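 Crude enzymes were lysis supernatants of recombinant yeasts expressing glycosyltransferases, with lysate from E. coli carrying empty vector as control. Reactions with ginsenoside or ginsengenin substrates ran 12 h at 35 °C and were stopped with butanol. Products were extracted, dried and redissolved in methanol.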

[10] = Glycosyltransfering reaction with crude enzyme, substrate Rg3; type: biochemical; settings: cell lysate of recombinant yeasts, method of Example 4
Description: as §1, §2, §3

Molecule	inhibition of proliferation (HeLa cells)	inhibition of proliferation (lung cancer cells 3LL)	inhibition of proliferation [1]	cytotoxicity to osteoclasts (osteoclasts)	inhibition of the generation of osteoclasts (osteoclasts)	inhibition of prostate cancer cells (prostate cancer cells)	inhibition of proliferation (B-16 melanoma cells)	conversion of PPT [2]	conversion of Rh1 [3]	conversion of F1 [4]	conversion of PPD [5]	conversion of Rg1 [6]	conversion of Rh2 [7]	conversion of F2 [8]	conversion of CK [9]	conversion of Rg3 [10]
CC(C)=CCC[C@](C)(O)[C@H]1CC[C@]2(C)[C@@H]1[C@H](O)C[C@@H]1[C@@]3(C)CC[C@H](O[C@@H]4O[C@H](CO)[C@@H](O)[C@H](O)[C@H]4O)C(C)(C)[C@@H]3CC[C@]12C [ginsenoside Rh2, 3-O-β-(D-glucopyranosyl)-20(S)-protopanaxadiol]	can inhibit the proliferation	can inhibit the proliferation	can inhibit the proliferation	strong cytotoxicity	poorly inhibits	significantly inhibit	can inhibit the proliferation									
gGT30: glycosyltransferase protein with 451 amino acids, SEQ ID NO.: 6 (protein, Panax ginseng; gGT30) MATQKCFRVLVFPWLAHGHISPFLELARKLIEKGNFFIYFCSTPINLISIKKKLSGDDHQNYTKSIQLVEHNLPTLPQLPPHYHTTDGLPPNLNPTLRKAFEMSKLSFPNTLNTLKPDLLICDDLFQWPEIVASSHGVPVVRFQTCSVTAASFLAHIFTNPDVTYPFPAIYLHEYETDQIRRCVDAVFESGREESRNLLVVNTSKAIEEKYFYYYSLLRGNTKIMPVGPLIQQAPNGDEDMKVIEWLDKKDPCSTVFVSFGSEYFMQKEEVEEMAHGLELSNVNFIWVFRAPVGAEKVKLPLGFVERVGGRGIVMEGWAPQARILGHSSIGGFVSHCGWNSVLETINFGVPIIGMPMKFEQPMNARLLSELGVCVEIVGDETRRFGREEVGNVIREVVGGKIGDDLRRKVKELGAKIKEKQEEEMDDVLDELVQICNKKKRTVVHHHHHH								neither converted	neither converted	neither converted	neither converted	neither converted	neither converted	neither converted	neither converted	neither converted
